Laboratory results as given in IntAct's records for PubMed 19318624.

B1: Glycogen accumulation regulator GarA (Mycobacterium tuberculosis (strain ATCC 25618 / P9WJA9 (parent)
chain: MTDMNPDIEKDQTSDEVTVETTSVFRADFLSELDAPAQAGTESAVSGVEGLPPGSALLVVKRGPNAGSRFLLDQAITSAGRHPDSDIFLDDVTVSRRHAEFRLENNEFNVVDVGSLNGTYVNREPVDSAVLANGDEVQIGKFRLVFLTGPKQGEDDGSTGGP
partner: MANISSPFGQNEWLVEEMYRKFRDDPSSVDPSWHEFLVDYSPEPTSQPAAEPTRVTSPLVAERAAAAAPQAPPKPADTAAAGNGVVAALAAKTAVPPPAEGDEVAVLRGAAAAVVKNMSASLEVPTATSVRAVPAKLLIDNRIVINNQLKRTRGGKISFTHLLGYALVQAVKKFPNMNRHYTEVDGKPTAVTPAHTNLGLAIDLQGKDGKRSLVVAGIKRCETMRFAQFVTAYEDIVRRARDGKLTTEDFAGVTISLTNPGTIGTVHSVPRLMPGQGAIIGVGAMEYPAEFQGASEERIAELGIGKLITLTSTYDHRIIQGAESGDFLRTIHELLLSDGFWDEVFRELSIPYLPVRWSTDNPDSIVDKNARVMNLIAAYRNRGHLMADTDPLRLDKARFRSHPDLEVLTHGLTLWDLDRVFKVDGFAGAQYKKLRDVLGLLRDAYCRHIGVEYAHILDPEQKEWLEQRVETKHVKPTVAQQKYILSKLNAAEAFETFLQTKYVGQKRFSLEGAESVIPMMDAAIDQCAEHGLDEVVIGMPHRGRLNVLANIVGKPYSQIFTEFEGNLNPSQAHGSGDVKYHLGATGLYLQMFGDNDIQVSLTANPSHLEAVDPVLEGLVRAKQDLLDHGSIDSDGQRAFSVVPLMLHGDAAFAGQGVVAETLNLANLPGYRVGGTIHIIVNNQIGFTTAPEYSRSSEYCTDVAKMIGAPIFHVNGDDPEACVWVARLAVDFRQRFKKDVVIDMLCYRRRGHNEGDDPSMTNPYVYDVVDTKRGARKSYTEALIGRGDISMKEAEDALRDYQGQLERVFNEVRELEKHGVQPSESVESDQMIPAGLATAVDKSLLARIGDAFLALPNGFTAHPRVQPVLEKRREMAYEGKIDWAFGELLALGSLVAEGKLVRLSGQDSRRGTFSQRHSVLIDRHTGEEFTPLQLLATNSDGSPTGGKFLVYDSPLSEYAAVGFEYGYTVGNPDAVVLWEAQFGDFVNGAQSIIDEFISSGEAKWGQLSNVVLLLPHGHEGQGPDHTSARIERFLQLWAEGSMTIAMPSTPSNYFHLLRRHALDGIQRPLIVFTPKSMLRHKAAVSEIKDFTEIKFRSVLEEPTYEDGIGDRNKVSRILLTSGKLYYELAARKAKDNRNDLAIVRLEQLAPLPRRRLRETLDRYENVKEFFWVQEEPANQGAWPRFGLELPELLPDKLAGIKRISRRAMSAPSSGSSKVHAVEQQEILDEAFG
B2: Glycogen accumulation regulator GarA (Mycobacterium tuberculosis (strain ATCC 25618 / P9WJA9 (parent)
chain: B1 chain

Variants of: B1
Conditions: with kgd_myctu kgd

MTDMNPDIEKDQTSDEVTVETTSVFRADFLSELDAPAQAGTESAVSGVEGLPPGSALLVVKRGPNAGSRFLLDQAITSAGRHPDSDIFLDDVTVSRRHAEFRLENNEFNVVDVGSLAGTYVNREPVDSAVLANGDEVQIGKFRLVFLTGPKQGEDDGSTGGP [N117A] was tested. Which “effect of a mutation on the interaction” value did it give?
Its value is “disrupting interaction”.

How did the “effect of a mutation on the interaction” value turn out when MTDMNPDIEKDQTSDEVTVETTSVFRADFLSELDAPAQAGTESAVSGVEGLPPGSALLVVKRGPNAGSRFLLDQAITSAGRHPDSDIFLDDVTVSRRHAEFRLENNEFNVVDVGSLNGTYVNREPVDSAVLANGDEVQIGKFELVFLTGPKQGEDDGSTGGP [R143E] was run?
The value was “disrupting interaction”.

MTDMNPDIEKDQTSDEVTVETTSVFRADFLSELDAPAQAGTESAVSGVEGLPPGSALLVVKRGPNAGSRFLLDQAITSAGRHPDSDIFLDDVTVSRRHAEFRLENNEFNVVDVGSLNGTYVNREPVDSAVLANGDEVQIGEFRLVFLTGPKQGEDDGSTGGP [K141E] was tested. Which “effect of a mutation on the interaction” value did it give?
Its value is “disrupting interaction”.

Variants of: B2
Conditions: with gltb_myctu gltB

With MTDMNPDIEKDQTSDEVTVETTSVFRADFLSELDAPAQAGTESAVSGVEGLPPGSALLVVKRGPNAGSRFLLDQAITSAGRHPDSDIFLDDVTVARRHAEFRLENNEFNVVDVGSLNGTYVNREPVDSAVLANGDEVQIGKFRLVFLTGPKQGEDDGSTGGP [S95A] as the variant, how does the “effect of a mutation on the interaction” value read?
The value was “disrupting interaction”.

MTDMNPDIEKDQTSDEVTVETTSVFRADFLSELDAPAQAGTESAVSGVEGLPPGSALLVVKRGPNAGSRFLLDQAITSAGRHPDSDIFLDDVTVSRRHAEFRLENNEFNVVDVGSLAGTYVNREPVDSAVLANGDEVQIGKFRLVFLTGPKQGEDDGSTGGP [N117A] was tested. Which “effect of a mutation on the interaction” value did it give?
The value was “disrupting interaction”.

MTDMNPDIEKDQTSDEVTVETTSVFRADFLSELDAPAQAGTESAVSGVEGLPPGSALLVVKRGPNAGSRFLLDQAITSAGRHPDSDIFLDDVTVSRRHAEFRLENNEFNVVDVGSLNGTYVNREPVDSAVLANGDEVQIGEFRLVFLTGPKQGEDDGSTGGP [K141E] was tested. Which “effect of a mutation on the interaction” value did it give?
The value was “disrupting interaction”.

Variants of: B2
Conditions: with dhe2_myctu gdh

With MTDMNPDIEKDQTSDEVTVETTSVFRADFLSELDAPAQAGTESAVSGVEGLPPGSALLVVKRGPNAGSRFLLDQAITSAGRHPDSDIFLDDVTVARRHAEFRLENNEFNVVDVGSLNGTYVNREPVDSAVLANGDEVQIGKFRLVFLTGPKQGEDDGSTGGP [S95A] as the variant, how does the “effect of a mutation on the interaction” value read?
Its value is “decreasing interaction”.

MTDMNPDIEKDQTSDEVTVETTSVFRADFLSELDAPAQAGTESAVSGVEGLPPGSALLVVKRGPNAGSRFLLDQAITSAGRHPDSDIFLDDVTVSRRHAEFRLENNEFNVVDVGSLNGTYVNREPVDSAVLANGDEVQIGEFRLVFLTGPKQGEDDGSTGGP [K141E] was tested. Which “effect of a mutation on the interaction” value did it give?
Its value is “disrupting interaction”.

With MTDMNPDIEKDQTSDEVTVETTSVFRADFLSELDAPAQAGTESAVSGVEGLPPGSALLVVKRGPNAGSRFLLDQAITSAGRHPDSDIFLDDVTVSRRHAEFRLENNEFNVVDVGSLNGTYVNREPVDSAVLANGDEVQIGKFELVFLTGPKQGEDDGSTGGP [R143E] as the variant, how does the “effect of a mutation on the interaction” value read?
The value was “disrupting interaction”.

Variants of: B2
Conditions: with dhe2_myctu gdh
Remark: another data set of the same source

With MTDMNPDIEKDQTSDEVTVETTSVFRADFLSELDAPAQAGTESAVSGVEGLPPGSALLVVKRGPNAGSRFLLDQAITSAGRHPDSDIFLDDVTVSRRHAEFRLENNEFNVVDVGSLAGTYVNREPVDSAVLANGDEVQIGKFRLVFLTGPKQGEDDGSTGGP [N117A] as the variant, how does the “effect of a mutation on the interaction” value read?
The value was “decreasing interaction”.
